Target: the molecule itself
Experiment: cryo-EM structure; maltoporin reconstituted in amphipol A8-35 (filaments); 2D classification and 3D reconstruction

B1: maltoporin (natural protein, UniProt P02943 26-446, looked up)
chain: VDFHGYARSGIGWTGSGGEQQCFQTTGAQSKYRLGNECETYAELKLGQEVWKEGDKSFYFDTNVAYSVAQQNDWEATDPAFREANVQGKNLIEWLPGSTIWAGKRFYQRHDVHMIDFYYWDISGPGAGLENIDVGFGKLSLAATRSSEAGGSSSFASNNIYDYTNETANDVFDVRLAQMEINPGGTLELGVDYGRANLRDNYRLVDGASKDGWLFTAEHTQSVLKGFNKFVVQYATDSMTSQGKGLSQGSGVAFDNEKFAYNINNNGHMLRILDHGAISMGDNWDMMYVGMYQDINWDNDNGTKWWTVGIRPMYKWTPIMSTVMEIGYDNVESQRTGDKNNQYKITLAQQWQAGDSIWSRPAIRVFATYAKWDEKWGYDYTGNADNNANFGKAVPADFNGGSFGRGDSDEWTFGAQMEIWW
notes: maltoporin, a beta-barrel transmembrane protein; One protein embedded in two polymers (SMA or amphipol A8-35); E. coli LamB is my surmise; also called maltoporin-SMA; maltoporin-Apol; source: purified using DDM-mediated extraction, detergent exchanged with SMA (bio-beads) or amphipol A8-35
stoichiometry N: 3

Source: paper doi:10.1101/2025.08.23.671895, “Detergent-free reconstitution of transmembrane proteins in giant liposomes of complex curvature by the Synthetic Membrane Transfer” (bioRxiv, 2025)
